Paper PMC5378893 (Scientific Reports, 2015)

Biological target: T1, extracellular domain (ECD) of human epidermal growth factor receptor 2 (HER2) (Homo sapiens, UniProt P04626)
T1 construct: human epidermal growth factor receptor 2 (HER2), extracellular domain; also called HER2/ECD
Assay: SPR; BIAcore T200; HER2/ECD immobilised on a CM5 chip by amine coupling to 1000 RU; IgG flowed in PBST (0.05% Tween 20) at 30 uL/min; regeneration 10 mM glycine pH 1.5; global fit to a 1:1 binding model
Conditions: both partners purified

Binder	Kd [nM]	koff [s⁻¹]	kon [M⁻¹ s⁻¹]
GH2-3 IgG (antibody, V domains shown, source: HEK293-F, transient transfection, purified (Protein A, Superdex 200)) VH: EVQLVESGGGLVQPGGSLRLSCAASGFTISGGWIHWVRQAPGKGLEWVAGIWPSGGSTSYADSVKGRFTISADTSKNTAYLQMNSLRAEDTAVYYCARFYFGFGDLMDYWGQGTLVTVSS VL: DIQMTQSPSSLSASVGDRVTITCRASQDVNNNVAWYQQKPGKAPKLLIYGARYLYSGVPSRFSGSGSGTDFTLTISSLQPEDFATYYCQQFGGGPLTFGQGTKVEIK	2.07	0.000502	242000
GH2-16 IgG (antibody, V domains shown, source: HEK293-F, transient transfection, purified (Protein A, Superdex 200)) VH: EVQLVESGGGLVQPGGSLRLSCAASGFTINNWGIHWVRQAPGKGLEWVAGIWPFGGYTYYADSVKGRFTISADTSKNTAYLQMNSLRAEDTAVYYCARFDYLNNGGMDYWGQGTLVTVSS VL: DIQMTQSPSSLSASVGDRVTITCRASQDVYSSVAWYQQKPGKAPKLLISYTSYLYSGVPSRFSGSGSGTDFTLTISSLQPEDFATYYCQQYYGGPMTFGQGTKVEIK	1.2	0.000102	85700
GH2-8 IgG (antibody, V domains shown, source: HEK293-F, transient transfection, purified (Protein A, Superdex 200)) VH: GVQLVESGGGLVQPGGSLRLSCAASGFTIGSSGIHWVRQAPGKGLEWVAGIWPYWGSTYYADSVKGRFTISADTSKNTAYLQMNSLRAEDTAVYYCARFGVGYHYYMDYWGQGTLVTVSS VL: DIQMTQSPSSLSASVGDRVTITCRASQDVGWWVAWYQQKPGKAPKLLISGATGLYSGVPSRFSGSGSGTDFTLTISSLQPEDFATYYCQQSWDSPITFGQGTKVEIK	0.259	0.000155	599000
GH2-13 IgG (antibody, V domains shown, source: HEK293-F, transient transfection, purified (Protein A, Superdex 200)) VH: EVQLVESGGGLVQPGGSLRLSCAASGFTISDGGIHWVRQAPGKGLEWVAGIWPYWGYTSYADSVKGRFTISADTSKNTAYLQMNSLRAEDTAVYYCARFDNNWVGNMDYWGQGTLVTVSS VL: DIQMTQSPSSLSASVGDRVTITCRASQDVYFGVAWYQQKPGKAPKLLISGTTSLYSGVPSRFSGSGSGTDFTLTISSLQPEDFATYYCQQYGSYPITFGQGTKVEIK	2.64	0.00818	3.1e+06
GH2-21 IgG (antibody, V domains shown, source: HEK293-F, transient transfection, purified (Protein A, Superdex 200)) VH: EVQLVESGGGLVQPGGSLRLSCAASGFTINDYSIHWVRQAPGKGLEWVASIWPFGGSTSYADSVKGRFTISADTSKNTAYLQMNSLRAEDTAVYYCARFNYWIGIIMDYWGQGTLVTVSS VL: DIQMTQSPSSLSASVGDRVTITCRASQDVSDNVAWYQQKPGKAPKLLIYWATGLYSGVPSRFSGSGSGTDFTLTISSLQPEDFATYYCQQYYGFPLTFGQGTKVEIK	1.4	0.000623	444000
GH2-18 IgG (antibody, V domains shown, source: HEK293-F, transient transfection, purified (Protein A, Superdex 200)) VH: EVQLVESGGGLVQPGGSLRLSCAASGFTISNWGIHWVRQAPGKGLEWVAGIWPYGGYTFYADSVKGRFTISADTSKNTAYLQMNSLRAEDTAVYYCARFNYLNLGGMDYWGQGTLVTVSS VL: DIQMTQSPSSLSASVGDRVTITCRASQDVNSNVAWYQQKPGKAPKLLIYWTTGLYSGVPSRFSGSGSGTDFTLTISSLQPEDFATYYCQQYLSGPITFGQGTKVEIK	0.0695	1.09e-05	156000
GH2-96 IgG (antibody, V domains shown, source: HEK293-F, transient transfection, purified (Protein A, Superdex 200)) VH: EVQLVESGGGLVQPGGSLRLSCAASGFTISGYGIHWVRQAPGKGLEWVAGIGPFWGYTFYADSVKGRFTISADTSKNTAYLQMNSLRAEDTAVYYCARFGHIVDGLMDYWGQGTLVTVSS VL: DIQMTQSPSSLSASVGDRVTITCRASQDVNGGVAWYQQKPGKAPKLLIYGSSWLYSGVPSRFSGSGSGTDFTLTISSLQPEDFATYYCQQYFDWPITFGQGTKVEIK	5.42	0.00137	254000
GH2-14 IgG (antibody, V domains shown, source: HEK293-F, transient transfection, purified (Protein A, Superdex 200)) VH: EVQLVESGGGLVQPGGSLRLSCAASGFTINDHGIHWVRQAPGKGLEWVAGIGPFGGYTSYADSVKGRFTISADTSKNTAYLQMNSLRAEDTAVYYCARFNFNDVGGMDYWGQGTLVTVSS VL: DIQMTQSPSSLSASVGDRVTITCRASQDVGGGVAWYQQKPGKAPKLLISGPPYLYSGVPSRFSGSGSGTDFTLTISSLQPEDFATYYCQQYFNYPITFGQGTKVEIK	17	0.00573	336000
GH2-102 IgG (antibody, V domains shown, source: HEK293-F, transient transfection, purified (Protein A, Superdex 200)) VH: EVQLVESGGGLVQPGGSLRLSCAASGFTINGGGIHWVRQAPGKGLEWVASIGPYGGYTSYADSVKGRFTISADTSKNTAYLQMNSLRAGDTAVYYCARFGHHYDGHMDYWGQGTLVTVSS VL: DIQMTQSPSSLSASVGDRVTITCRASQDVGSNVAWYQQKPGKAPKLLIYGAPYLYSGVPSRFSGSGSGTDFTLTISSLQPEDFATYYCQQYYNWPLTFGQGTKVEIK	28.4	0.039	1.37e+06
GH2-23 IgG (antibody, V domains shown, source: HEK293-F, transient transfection, purified (Protein A, Superdex 200)) VH: EVQLVESGGGLVQPGGSLRLSCAASGFTINGGGIHWVRQAPGKGLEWVAFIGPFGGSTFYADSVKGRFTISADTSKNTAYLQMNSLRAEDTAVYYCARFFGGNIHVMDYWGQGTLVTVSS VL: DIQMTQSPSSLSASVGDRVTITCRASQDVFWGVAWYQQKPGKAPKLLISWSASLYSGVPSRFSGSGSGTDFTLTISSLQPEDFATYYCQQYFSFPFTFGQGTKVEIK	0.827	0.00018	217000
GH2-95 IgG (antibody, V domains shown, source: HEK293-F, transient transfection, purified (Protein A, Superdex 200)) VH: EVQLVESGGGLVQPGGSLRLSCAASGFTIDSWGIHWVRQAPGKGLEWVAGIGPFWGYTSYADSVKGRFTISADTSKNTAYLQMNSLRAEDTAVYYCARFGIHFDGIMDYWGQGTLVTVSS VL: DIQMTQSPSSLSASVGDRVTITCRASQDVSGGVAWYQQKPGKAPKLLIFGSTWLYSGVPLRFSGSGSGTDFTLTISSLQPEDFATYYCQQYYDWPLTFGQGTKVEIK	4.47	0.000244	54700
GH2-98 IgG (antibody, V domains shown, source: HEK293-F, transient transfection, purified (Protein A, Superdex 200)) VH: EVQLVESGGGLVQPGGSLRLSCAASGFTINNYGIHWVRQAPGKGLEWVAGIGPSWGFTYYADSVKGRFTISADTSKNTAYLQMNSLRAEDTAVYYCARFGFYNDGFMDYWGQGTLVTVSS VL: DIQMTQSPSSLSASVGDRVTITCRASQDVGSGVAWYQQKPGKAPKLLIYFSASLYSGVPSRFSGSGSGTDFTLTISSLQPEDFATYYCQQYYNWPLTFGQGTKVEIK	88.5	0.0224	254000
GH2-36 IgG (antibody, V domains shown, source: HEK293-F, transient transfection, purified (Protein A, Superdex 200)) VH: EVQLVESGGGLVQPGGSLRLSCAASGFTIGGGGIHWVRQAPGKGLEWVAYIGPYGGYTSYADSVKGRFTISADTSKNTAYLQMNSLRAEDTAVYYCARFHDHIGGIMDYWGQGTLVTVSS VL: DIQMTQSPSSLSASVGDRVTITCRASQDVNSNVAWYQQEPGKAPKLLIYFSSGLYSGVPSRFSGSGSGTDFTLTISSLQPEDFATYYCQQYYNWPLTFGQGTKVEIK	8.85	7.7	8.68e+08
GH2-104 IgG (antibody, V domains shown, source: HEK293-F, transient transfection, purified (Protein A, Superdex 200)) VH: EVQLVESGGGLVQPGGSLRLSCAASGFTIDSWGIHWVRQAPGKGLEWVAGIGPFGGYTSYADSVKGRFTISADTSKNTAYLQMNSLRAEDTAVYYCARFGDYIDGVMDYWGQGTLVTVSS VL: DIQMTQSPSSLSASVGDRVTITCRASQDVNSNVAWYQQKPGKAPKLLIYGSPSLYSGVPSRFSGSGSGTDFTLTISSLQPEDFATYYCQQYYDWPLTFGQGTKVEIK	1.04	0.000884	852000
M41 IgG (mouse anti-HER2/ECD) (antibody, V domains shown, mouse VL; L49~L53 YYTSG; L91~L96 VNTLPY; mouse VH; H50~H58 NFHPYNDYTN; H96~H100B HDGYYGA; recombinant IgG from a scFv of an immunized mouse's phage library; source: HEK293-F, transient transfection, purified (Protein A, Superdex 200)) VH: EVQLQQSGAELVKPGASVKMSCKAFGYTFTTYPIEWMKQNHGKSLEWIGNFHPYNDYTNYNEKFKGKAKLTVEKSSTTVYLELSRLTSDDSAVYYCARRHDGYYGAMDYWGQGTSVTVSS VL: DIQMTQTTSSLSASLGDRVTISCRTSQDISNYLNWYQQKPNGTIKLLIYYTSGLYSGVPSRFSGSGSGADYSLTISNVEQEDIATYFCQQVNTLPYTFGGGTKLELK	0.0519	3.48e-05	671000
M61 IgG (mouse anti-HER2/ECD) (antibody, V domains shown, mouse VL; L49~L53 YNAKT; L91~L96 HYGTPY; mouse VH; H50~H58 NFHPYNDDTK; H96~H100B NDGYYGA; recombinant IgG from a scFv of an immunized mouse's phage library; source: HEK293-F, transient transfection, purified (Protein A, Superdex 200)) VH: EVQLQQSGAELVKPGASVKMSCKAFGYTFTTYPIEWMKQNHGKSLEWIGNFHPYNDDTKYNEKFKGKAKLTVEKSSSTVYLELSRLTSDDSAVYYCARRNDGYYGAMDYWGQGTSVTVSS VL: DIKITQSPASLSASVGETVTITCRASENIYSYLAWYQQKQGKSPQLLVYNAKTLAEGVPSRFSGSGSGTQFSLKINSLQPEDFGSYYCQHHYGTPYTFGGGTKLELK	0.591	0.0024	4.06e+06
M32 IgG (mouse anti-HER2/ECD) (antibody, V domains shown, mouse VL; L49~L53 YSASN; L91~L96 YSSYPL; mouse VH; H50~H58 WIDPENGNTI; H96~H100B YYGSRVL; recombinant IgG from a scFv of an immunized mouse's phage library; source: HEK293-F, transient transfection, purified (Protein A, Superdex 200)) VH: EVQLVESGAELVRPGALVKLSCKASGFNIKDYFMYWVKQRPEQGLEWVGWIDPENGNTIYDPKFQGKASITADTSSNTAYLQLSSLTSEDTAVYYCTRGYYGSRVLAMDYWGQGTSVTVSS VL: GIELTQSQKFMSTSVGDRVSITCKASQNVGTAVAWYQQKPGQSPKLLIYSASNRYTGVPDRFTGSGSGTDFTLTISNMQSEDLADYFCQQYSSYPLAFGGGTKLEIK	0.243	7.15e-05	294000
M62 IgG (mouse anti-HER2/ECD) (antibody, V domains shown, mouse VL; L49~L53 HSASY; L91~L96 YNSYPL; mouse VH; H50~H58 EIYPGGGNPY; H96~H100B YKYDVS; recombinant IgG from a scFv of an immunized mouse's phage library; source: HEK293-F, transient transfection, purified (Protein A, Superdex 200)) VH: EVQLQQSGTELARPGASVKLSCKASGYTFIDYYITWVKQRTGQGLEWIGEIYPGGGNPYYNDNFKGKASLTADKSSNTVYMQLSSLTSEDSAVYFCARSYKYDVSVYWGQGTLVTVSA VL: DIQMIQSQKFMSTSVGDRVSVTCKASQNVGTNVAWYQQKPGQSPKALIHSASYRYSGVPDRFTGSGSGTDFTLTISNVQSEDLAEYFCQQYNSYPLTFGAGTKLEIK	0.0228	1.8e-05	788000
M64 IgG (mouse anti-HER2/ECD) (antibody, V domains shown, mouse VL; L49~L53 YWAST; L91~L96 HYSTPY; mouse VH; H50~H58 RIDPANGNTK; H96~H100B YRGAM; recombinant IgG from a scFv of an immunized mouse's phage library; source: HEK293-F, transient transfection, purified (Protein A, Superdex 200)) VH: EVQLQQSGAELVKPGASVKLSCTASGFNIKNTYMHWVKQRPEQGLEWIGRIDPANGNTKYDPKLQGKATITADTSSNTAYLHLSSLTSEDTAVYYCVPYYRGAMDYWGQGTSVTVSS VL: DIQMNQSHKFMSTSVGDRVSITCKASQDVSTAVAWYQQKPGQSPKLLIYWASTRHTGVPGRFTGSGSGADYTLTISSVQAEDLALYYCQQHYSTPYTFGGGTKLEIK	0.195	0.000337	1.74e+06
